Experiments:
[1] = biological target: JEV CC_FLE sE (G5C/G102C), disulfide-linked dimer (Japanese encephalitis virus (SA-14-14-2 strain)); experiment: cryo-EM structure
[2] = biological target: JEV CC_FLE sE (G5C/G102C), disulfide-linked dimer (Japanese encephalitis virus (SA-14-14-2 strain)); experiment: SEC; purified sE proteins on a Superose 6 column
[3] = biological target: WNV CC_FLE sE (G5C/G102C), dimer (West Nile virus); experiment: cryo-EM structure
[4] = biological target: WNV CC_FLE sE (G5C/G102C), dimer (West Nile virus); experiment: SEC; purified sE proteins on a Superose 6 column
[5] = biological target: ZIKV CC_FLE sE (G5C/G102C), disulfide-linked dimer (Zika virus (Brazilian strain SPH2015)); experiment: SEC
[6] = biological target: ZIKV CC_FLE sE (G5C/G102C), disulfide-linked dimer (Zika virus (Brazilian Zika SPH2015 strain)); experiment: cryo-EM structure
[7] = biological target: ZIKV CC_FLE sE (G5C/G102C), disulfide-linked dimer (Zika virus (Brazilian Zika SPH2015 strain)); experiment: SEC; purified sE proteins on a Superose 6 column
[8] = biological target: ZIKV CC_FLE sE (G5C/G102C), disulfide-linked dimer (Zika virus (Brazilian strain SPH2015)); experiment: SDS-PAGE with and without the reducing reagent DTT
[9] = biological target: ZIKV CC_Core sE (A264C), disulfide-linked dimer (Zika virus (Brazilian strain SPH2015)); experiment: SEC
[10] = biological target: ZIKV CC_Core sE (A264C), disulfide-linked dimer (Zika virus (Brazilian Zika SPH2015 strain)); experiment: cryo-EM structure
[11] = biological target: ZIKV CC_Core sE (A264C), disulfide-linked dimer (Zika virus (Brazilian Zika SPH2015 strain)); experiment: SEC; purified sE proteins on a Superose 6 column
[12] = biological target: ZIKV CC_Core sE (A264C), disulfide-linked dimer (Zika virus (Brazilian strain SPH2015)); experiment: SDS-PAGE with and without the reducing reagent DTT

Measured: stoichiometry N

JEV CC_FLE sE (G5C/G102C), disulfide-linked dimer (domain or fragment)
2: [1] | [2]

WNV CC_FLE sE (G5C/G102C), dimer (domain or fragment)
2: [3] | [4]

ZIKV CC_FLE sE (G5C/G102C), disulfide-linked dimer (domain or fragment)
2: [5] | [6] | [7] | [8]

ZIKV CC_Core sE (A264C), disulfide-linked dimer (domain or fragment)
2: [9] | [10] | [11] | [12]
